Assay [1] deals with human IL-18BP (recombinant, construct not stated) (human) (UniProt O95998). Kind of assay: Biacore. Background: SPR reads the build-up and loss of mass on a sensor chip optically.
For assay [2], the target named is cynomolgus monkey IL-18BP (construct not stated) (cynomolgus monkey). Kind of assay: KinExA, solution equilibrium. (In KinExA the mixture passes briefly over coated beads that capture the unbound partner.)
Assay [3] addresses human IL-18BP (recombinant, construct not stated) (human) (UniProt O95998). Description: KinExA.

human IL-18BP (recombinant, construct not stated) (human), sequence (O95998 31-194 limits assumed): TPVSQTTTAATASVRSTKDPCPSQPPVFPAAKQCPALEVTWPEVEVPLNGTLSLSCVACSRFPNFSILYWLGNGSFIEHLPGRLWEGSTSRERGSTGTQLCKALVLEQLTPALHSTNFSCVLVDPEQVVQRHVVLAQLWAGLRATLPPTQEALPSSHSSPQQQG

For the substance “anti-human IL18BP antibody clone 136007 (cat. MAB1191, R&D systems)”, in assay [1], the dissociation constant Kd is 0.273 nM. “cyno IL-18 (from UniProt A0A2K5TJ84 37-193) (ligand)” had a Kd in assay [2] of 0.000345 nM. “anti-human IL18BP antibody clone W19089C (cat. 947703, Biolegend)”: the dissociation constant Kd in assay [3] is 0.0638 nM.

As usually defined, the Kd is a measure of binding affinity in units of concentration.

The values above are taken from patent publication US20240425607A1, “IL-18BP ANTAGONIST ANTIBODIES AND THEIR USE IN MONOTHERAPY AND COMBINATION THERAPY IN THE TREATMENT OF CANCER” (Compugen Ltd., priority 2023, published 2024).
